According to IntAct's records for PubMed 30956113:

B1: Transmembrane 4 L6 family member 5 (Homo sapiens), O14894 (parent)
chain: MCTGKCARCVGLSLITLCLVCIVANALLLVPNGETSWTNTNHLSLQVWLMGGFIGGGLMVLCPGIAAVRAGGKGCCGAGCCGNRCRMLRSVFSSAFGVLGAIYCLSVSGAGLRNGPRCLMNGEWGYHFEDTAGAYLLNRTLWDRCEAPPRVVPWNVTLFSLLVAASCLEIVLCGIQLVNATIGVFCGDCRKKQDTPH
B2: Transmembrane 4 L6 family member 5 (Homo sapiens), O14894 (parent)
chain: B1 chain
partner: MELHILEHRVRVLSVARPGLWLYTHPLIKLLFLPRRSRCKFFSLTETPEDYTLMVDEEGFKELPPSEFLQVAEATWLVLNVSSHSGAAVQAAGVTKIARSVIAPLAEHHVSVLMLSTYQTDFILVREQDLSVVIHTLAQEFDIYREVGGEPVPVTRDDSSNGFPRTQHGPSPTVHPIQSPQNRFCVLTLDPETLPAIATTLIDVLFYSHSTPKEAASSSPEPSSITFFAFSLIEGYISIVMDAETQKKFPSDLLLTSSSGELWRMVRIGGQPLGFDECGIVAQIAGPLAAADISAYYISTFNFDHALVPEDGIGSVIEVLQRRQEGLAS
B3: Transmembrane 4 L6 family member 5 (Homo sapiens), O14894 (parent)
chain: B1 chain
partner: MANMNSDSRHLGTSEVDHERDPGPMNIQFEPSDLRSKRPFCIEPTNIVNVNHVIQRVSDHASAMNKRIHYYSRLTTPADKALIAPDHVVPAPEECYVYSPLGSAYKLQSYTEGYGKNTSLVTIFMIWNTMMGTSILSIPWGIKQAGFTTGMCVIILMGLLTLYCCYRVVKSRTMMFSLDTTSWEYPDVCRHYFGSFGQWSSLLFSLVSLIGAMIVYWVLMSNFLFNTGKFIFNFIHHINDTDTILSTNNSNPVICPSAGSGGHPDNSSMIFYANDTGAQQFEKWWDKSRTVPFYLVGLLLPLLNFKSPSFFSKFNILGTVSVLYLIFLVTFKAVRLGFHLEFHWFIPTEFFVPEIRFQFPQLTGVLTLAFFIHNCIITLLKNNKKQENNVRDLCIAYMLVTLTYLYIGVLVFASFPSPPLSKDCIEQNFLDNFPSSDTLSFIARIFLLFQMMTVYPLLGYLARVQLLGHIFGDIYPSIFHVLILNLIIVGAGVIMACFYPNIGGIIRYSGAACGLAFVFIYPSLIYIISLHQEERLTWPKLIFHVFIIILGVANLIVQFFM

Variants of: B1
Details: with mtor_human MTOR

effect of a mutation on the interaction | Variant
with no effect | N138A
with no effect | W124A
with no effect | Y126S

Variants of: B2
Details: with cast1_human CASTOR1, Q8WTX7

effect of a mutation on the interaction | Variant
with no effect | MCTGKCARCVGLSLITLCLVCIVANALLLVPNGETSWTNTNHLSLQVWLMGGFIGGGLMVLCPGIAAVRAGGKGCCGAGCCGNRCRMLRSVFSSAFGVLGAIYCLSVSGAGLRNGPRCLMNGEAGYHFEDTAGAYLLNRTLWDRCEAPPRVVPWNVTLFSLLVAASCLEIVLCGIQLVNATIGVFCGDCRKKQDTPH

Variants of: B3
Details: with SLC38A9, Q8NBW4

effect of a mutation on the interaction | Variant
with no effect | MCTGKCARCVGLSLITLCLVCIVANALLLVPNGETSWTNTNHLSLQVWLMGGFIGGGLMVLCPGIAAVRAGGKGCCGAGCCGNRCRMLRSVFSSAFGVLGAIYCLSVSGAGLRNGPRCLMNGEAGYHFEDTAGAYLLNRTLWDRCEAPPRVVPWNVTLFSLLVAASCLEIVLCGIQLVNATIGVFCGDCRKKQDTPH
